Target: srrt_arath SE (UniProt Q9ZVD0)
UniProt Q9ZVD0, sequence (Q9ZVD0 whole entry): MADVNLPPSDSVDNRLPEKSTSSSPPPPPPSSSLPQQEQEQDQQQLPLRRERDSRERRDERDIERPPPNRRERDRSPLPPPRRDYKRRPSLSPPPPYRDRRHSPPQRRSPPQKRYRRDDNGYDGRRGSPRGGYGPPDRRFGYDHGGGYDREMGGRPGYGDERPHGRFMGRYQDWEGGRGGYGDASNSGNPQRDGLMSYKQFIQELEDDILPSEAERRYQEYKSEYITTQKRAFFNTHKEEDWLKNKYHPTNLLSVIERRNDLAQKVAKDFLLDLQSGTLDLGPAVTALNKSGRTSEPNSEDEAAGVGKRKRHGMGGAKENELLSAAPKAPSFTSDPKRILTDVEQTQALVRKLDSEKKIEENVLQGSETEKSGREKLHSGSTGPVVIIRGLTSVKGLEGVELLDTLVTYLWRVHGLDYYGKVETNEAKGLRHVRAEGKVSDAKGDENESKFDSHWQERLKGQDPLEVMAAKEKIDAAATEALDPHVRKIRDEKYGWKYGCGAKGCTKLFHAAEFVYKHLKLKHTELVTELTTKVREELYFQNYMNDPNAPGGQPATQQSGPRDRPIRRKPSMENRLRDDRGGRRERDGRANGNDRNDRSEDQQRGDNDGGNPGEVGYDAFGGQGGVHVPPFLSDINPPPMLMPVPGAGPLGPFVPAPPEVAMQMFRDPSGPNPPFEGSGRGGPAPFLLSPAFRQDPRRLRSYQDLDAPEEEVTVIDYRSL

effect of a mutation on the interaction: disrupting interaction
Substance: ATP-dependent helicase BRM (Arabidopsis thaliana (Mouse-ear cress)), Q6EVK6 E1747A
